Key:
Experiment in all cases: pull-down; GST pulldown; equal molars of GST-Srs2-CT or GST-Rad30-PIP and His6-Pol30 coincubated overnight at 4°C; Western blot with anti-His6 and anti-GST
Conditions in all cases: both partners purified
His6-tagged Pol30-K164R = target: T1, His6-tagged Pol30-K164R (S. cerevisiae, UniProt P15873 1-258, K164R)
T1 construct: Pol30 (PCNA), S. cerevisiae, POL30 ORF in pET30a, mutant derivative; The methods describe only the wild-type pET-Pol30; source: E. coli BL21, purified (Ni Sepharose)
T1 sequence (looked up): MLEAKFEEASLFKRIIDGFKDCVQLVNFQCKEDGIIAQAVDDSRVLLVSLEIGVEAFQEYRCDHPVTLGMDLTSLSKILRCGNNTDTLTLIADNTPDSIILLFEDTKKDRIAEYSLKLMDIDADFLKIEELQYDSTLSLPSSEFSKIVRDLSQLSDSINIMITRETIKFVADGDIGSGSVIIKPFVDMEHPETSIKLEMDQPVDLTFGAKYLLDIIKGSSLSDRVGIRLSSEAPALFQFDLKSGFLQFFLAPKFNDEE

His6-tagged Pol30 = target: T2, His6-tagged Pol30 (S. cerevisiae, UniProt P15873 1-258)
T2 construct: Pol30 (PCNA), S. cerevisiae, POL30 ORF cloned into BamHI-SacI sites of pET30a; also called His6-Pol30; PCNA; source: E. coli BL21, purified (Ni Sepharose)
T2 sequence (looked up): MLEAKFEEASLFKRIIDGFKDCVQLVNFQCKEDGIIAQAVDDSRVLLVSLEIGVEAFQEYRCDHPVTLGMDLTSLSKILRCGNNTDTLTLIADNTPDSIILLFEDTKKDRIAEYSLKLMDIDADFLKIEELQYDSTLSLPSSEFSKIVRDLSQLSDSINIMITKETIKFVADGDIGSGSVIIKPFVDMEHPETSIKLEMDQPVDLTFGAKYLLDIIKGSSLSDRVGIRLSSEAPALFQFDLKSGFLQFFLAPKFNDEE

His6-tagged Pol30-I128A = target: T3, His6-tagged Pol30-I128A (S. cerevisiae, UniProt P15873 1-258, I128A)
T3 construct: Pol30 (PCNA), S. cerevisiae, POL30 ORF in pET30a, mutant derivative; source: E. coli BL21, purified (Ni Sepharose)
T3 sequence (looked up): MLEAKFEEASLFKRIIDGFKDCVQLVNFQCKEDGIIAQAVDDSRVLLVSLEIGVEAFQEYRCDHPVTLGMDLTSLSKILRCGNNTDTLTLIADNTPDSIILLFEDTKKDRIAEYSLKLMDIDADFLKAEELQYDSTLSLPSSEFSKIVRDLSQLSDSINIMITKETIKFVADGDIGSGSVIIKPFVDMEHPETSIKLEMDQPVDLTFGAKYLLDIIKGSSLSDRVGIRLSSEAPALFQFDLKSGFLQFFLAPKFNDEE

His6-tagged Pol30-A171D = target: T4, His6-tagged Pol30-A171D (S. cerevisiae, UniProt P15873 1-258, A171D)
T4 construct: Pol30 (PCNA), S. cerevisiae, POL30 ORF in pET30a, mutant derivative; The methods describe only the wild-type pET-Pol30; source: E. coli BL21, purified (Ni Sepharose)
T4 sequence (looked up): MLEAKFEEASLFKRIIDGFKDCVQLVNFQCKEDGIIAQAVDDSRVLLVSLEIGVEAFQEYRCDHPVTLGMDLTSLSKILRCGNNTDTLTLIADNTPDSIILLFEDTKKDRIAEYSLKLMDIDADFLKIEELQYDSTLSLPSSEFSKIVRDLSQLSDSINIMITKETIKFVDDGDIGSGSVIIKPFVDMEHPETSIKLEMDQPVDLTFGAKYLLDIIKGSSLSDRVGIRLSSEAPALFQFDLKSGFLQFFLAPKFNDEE

Measured: binding result

B1: GST-tagged Rad30-PIP (domain or fragment, S. cerevisiae, UniProt Q04049 515-632, looked up)
chain: VVDMFGNQVHTFKSSAGKEDEEKTTSSKADEKTPKLECCKYQVTFTDQKALQEHADYHLALKLSEGLNGAEESSKNLSFGEKRLLFSRKRPNSQHTATPQKKQVTSSKNILSFFTRKK
notes: Rad30 (DNA polymerase eta), S. cerevisiae, residues 515 to 632, cloned into BamHI-EcoRI sites of pGEX6; also called GST-Rad30-PIP; Rad30-PIP domain; source: E. coli BL21, purified (glutathione Sepharose)
binds: all assays above

B2: GST-tagged Srs2 C-terminal domain (Srs2-CT) (domain or fragment, S. cerevisiae, UniProt P12954 1107-1174, looked up)
chain: HNPDDTTVDNRPIISNAKFLADAAMKKTQKFSKKVKNEPASSQMDIFSQLSRAKKKSKLNNGEIIVID
notes: Srs2 DNA helicase, S. cerevisiae, residues 1107 to 1174, cloned into BamHI-EcoRI sites of pGEX6; Holds the atypical PIP box and the SIM; also called GST-Srs2-CT; Srs2 C terminus; source: E. coli BL21, purified (glutathione Sepharose)
binds: His6-tagged Pol30-K164R | His6-tagged Pol30 | His6-tagged Pol30-I128A

From article PMC10127746, “Genetic Dissection of Budding Yeast PCNA Mutations Responsible for the Regulated Recruitment of Srs2 Helicase” (mBio, 2023)
